In patent publication US20040126819A1 (LICENTIA, published 2004):

Key:
[1] = target: T1, 300 kD GDNF receptor subunit of rat cell lines; assay: displacement of 125I-GDNF by increasing cold GDNF on RN33B cells, cross-linking, SDS-PAGE, band of the subunit cut out and counted
T1 construct: On C6, L6, RN33B, RN46A and ST15A cells; also called large molecular weight band; high molecular weight component
Description: (§1) Plated cells were incubated with 10 ng/ml […] at 4° C. in binding buffer as described above. Ligand/receptor complexes were chemically cross-linked for thirty minutes at room temperature using either disuccinimidyl suberate (DSS) or 1-Ethyl-3(-3-dimethylaminopropyl)-carbodiimide hydrochloride (EDAC) (Pierce Chemical, Rockland, Ill.). Following quenching of the cross-linking reactions, cells were washed twice with 10 mM Tris/HCl buffered saline, 2 mM EDTA, 10% glycerol, 1% NP40, 1% Triton x-100, 10 μg/ml leupeptin, 10 μg/ml antipain, 50 μg/ml aprotinin, 100 μg/ml benzamidine hydrochloride, 10 μg/ml pepstatin and 1 mM PMSF(proteinase inhibitors from Sigma). Cleared lysates were boiled for 5 min in SDS/β-mercaptoethanol buffer, fractionated by SDS/PAGE on 4-20% gradient electrophoresis gels, and visualized by autoradiography. Molecular weights indicated were obtained by subtracting the weight of a GDNF ligand monomer, e.g., 25-30 kD, more preferably […], from the estimated molecular weights of cross-linked complexes visualized by SDS/PAGE. For affinity measurements of cross-linked complexes, cells were incubated on plates as above in the presence of increasing amounts of unlabeled GDNF. These samples were fractionated by gradient SDS/PAGE, gels were then dried and specific bands excised according to molecular weights determined from autoradiograms, and count in a gamma counter. […] Immunocomplexes were collected with Protein A-Sepharose (Pharmacia, Sweden), washed in lysis buffer and boiled for 5 minutes before SDS/PAGE and autoradiography as above.
(§2) In order to dissect the individual constituent affinities of GDNF receptor subunits, displacement binding assays were performed, followed by cross-linking and SDS-PAGE. Receptor-ligand complexes were visualized by autoradiography, cut out from the gel and counted in a gamma counter.

[2] = target: T2, 70 kD GDNF receptor subunit of rat cell lines (designated GDNFR-β) (rat, UniProt O35977 22-444); assay: as above
T2 construct: whole, on cells; also called 65-70 kD receptor; 100 kD complex (with GDNF) in RN33B cells
T2 sequence: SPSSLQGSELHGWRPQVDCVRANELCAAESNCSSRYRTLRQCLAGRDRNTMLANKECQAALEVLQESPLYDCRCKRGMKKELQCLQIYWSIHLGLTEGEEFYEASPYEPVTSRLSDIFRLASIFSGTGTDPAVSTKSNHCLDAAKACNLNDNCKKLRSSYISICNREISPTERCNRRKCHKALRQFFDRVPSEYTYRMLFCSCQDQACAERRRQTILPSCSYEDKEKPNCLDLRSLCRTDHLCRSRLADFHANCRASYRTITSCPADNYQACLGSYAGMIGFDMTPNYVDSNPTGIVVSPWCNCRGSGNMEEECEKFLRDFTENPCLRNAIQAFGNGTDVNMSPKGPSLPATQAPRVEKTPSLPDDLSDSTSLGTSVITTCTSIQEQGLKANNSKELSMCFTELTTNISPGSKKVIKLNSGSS
Description: as §1, §2

[3] = target: T3, 55 kD GDNF receptor subunit of rat cell lines (confirmed to be GDNFR-α) (rat, UniProt Q62997 25-430); assay: as above
T3 construct: whole, on cells; also called 50-55 kD receptor; 70 kD complex (with GDNF) in RN33B cells
T3 sequence (looked up): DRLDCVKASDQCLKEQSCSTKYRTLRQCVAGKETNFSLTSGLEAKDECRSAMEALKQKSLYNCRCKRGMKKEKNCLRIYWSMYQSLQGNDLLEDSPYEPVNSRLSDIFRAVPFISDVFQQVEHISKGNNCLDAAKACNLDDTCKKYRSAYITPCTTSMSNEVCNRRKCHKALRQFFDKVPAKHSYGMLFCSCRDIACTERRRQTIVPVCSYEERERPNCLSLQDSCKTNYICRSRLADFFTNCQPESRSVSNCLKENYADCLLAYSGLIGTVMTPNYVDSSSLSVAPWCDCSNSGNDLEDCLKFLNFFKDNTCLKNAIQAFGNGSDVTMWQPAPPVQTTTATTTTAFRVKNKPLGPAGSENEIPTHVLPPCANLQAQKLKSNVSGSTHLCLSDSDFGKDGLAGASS
Description: as §1, §2

[4] = target: T4, 135 kD GDNF receptor subunit of rat cell lines; assay: as above
T4 construct: On C6, L6, RN33B and RN46A cells
Description: as §1, §2

[5] = target: 300 kD GDNF receptor subunit of mouse cell lines (MN-1, TM4, SK-N-SH as printed); assay: displacement of 125I-GDNF by cold GDNF on MN-1 cells, cross-linking, SDS-PAGE, bands counted
Description: (§3) Plated cells were incubated with 10 ng/ml […] at 4° C. in binding buffer as described above. Ligand/receptor complexes were chemically cross-linked for thirty minutes at room temperature using either disuccinimidyl suberate (DSS) or 1-Ethyl-3(-3-dimethylaminopropyl)-carbodiimide hydrochloride (EDAC) (Pierce Chemical, Rockland, Ill.). Following quenching of the cross-linking reactions, cells were washed twice with 10 mM Tris/HCl buffered saline, 2 mM EDTA, 10% glycerol, 1% NP40, 1% Triton x-100, 10 μg/ml leupeptin, 10 μg/ml antipain, 50 μg/ml aprotinin, 100 μg/ml benzamidine hydrochloride, 10 μg/ml pepstatin and 1 mM PMSF(proteinase inhibitors from Sigma). Cleared lysates were boiled for 5 min in SDS/β-mercaptoethanol buffer, fractionated by SDS/PAGE on 4-20% gradient electrophoresis gels, and visualized by autoradiography. […] These samples were fractionated by gradient SDS/PAGE, gels were then dried and specific bands excised according to molecular weights determined from autoradiograms, and count in a gamma counter. […]
as §2

[6] = target: T1, 300 kD GDNF receptor subunit of rat …; assay: displacement of 125I-GDNF by cold GDNF on RN33B cells, cross-linking, SDS-PAGE, bands counted
Description: as §3, §2

[7] = target: T4, 135 kD GDNF receptor subunit of rat …; assay: as above
Description: as §3, §2

B1: recombinant rat GDNF produced in Sf21 insect cells using a baculovirus expression system (ligand, UniProt Q07731 78-211, looked up)
chain: SPDKQAAALPRRERNRQAAAASPENSRGKGRRGQRGKNRGCVLTAIHLNVTDLGLGYETKEELIFRYCSGSCEAAETMYDKILKNLSRSRRLTSDKVGQACCRPVAFDDDLSFLDDSLVYHILRKHSAKRCGCI
modifications: labeled with Na-^125I by the chloramine-T method where used as tracer
notes: mature; also called glial cell line-derived neurotrophic factor
B1 was tested, and the “IC50 (read off the curve)” value [1] was ~0.1 nM, the “IC50 (read off the curve)” value [2] was ~0.2 nM and the “IC50 (read off the curve)” value [3] was ~0.2 nM. For the same binder, the “IC50 (read off the curve)” value [4] was ~0.2 nM, the Kd [5] was ~0.2 nM and the Kd [6] was ~0.2 nM. For the same binder, the Kd [7] was ~0.2 nM.
